Assay results taken from patent publication US20100216659A1.

Assays:
[1] = molecular target: monomeric gp120 (HIV-1) (HIV-1); assay: yeast display flow cytometry, gp120 titrated in the absence of sCD4, MFI of antigen binding
[2] = molecular target: gp120 pre-complexed with sCD4 (HIV-1); assay: yeast display flow cytometry, gp120 titrated in the presence of sCD4, MFI of antigen binding

Work on “scFv X5 displayed on yeast (X5-pPNLS in EBY100)” yielded a Kd [1] of 14.5 nM and a Kd [2] of 1.1 nM.
